# Test results published in patent US9803012B2, “Compositions and methods for regulating SAS1R” (UNIVERSITY OF VIRGINIA PATENT FOUNDATION, priority 2005, dated 2017).
# T1: rSAS1R (Mus musculus, UniProt Q6HA09)
# T1 construct: The mature rSAS1R (414 residues); 20 vector-encoded residues including His6 (pET-28b) (N); made in house; host or cells: E. coli BL21DE3
# T1 sequence (Q6HA09 22-435): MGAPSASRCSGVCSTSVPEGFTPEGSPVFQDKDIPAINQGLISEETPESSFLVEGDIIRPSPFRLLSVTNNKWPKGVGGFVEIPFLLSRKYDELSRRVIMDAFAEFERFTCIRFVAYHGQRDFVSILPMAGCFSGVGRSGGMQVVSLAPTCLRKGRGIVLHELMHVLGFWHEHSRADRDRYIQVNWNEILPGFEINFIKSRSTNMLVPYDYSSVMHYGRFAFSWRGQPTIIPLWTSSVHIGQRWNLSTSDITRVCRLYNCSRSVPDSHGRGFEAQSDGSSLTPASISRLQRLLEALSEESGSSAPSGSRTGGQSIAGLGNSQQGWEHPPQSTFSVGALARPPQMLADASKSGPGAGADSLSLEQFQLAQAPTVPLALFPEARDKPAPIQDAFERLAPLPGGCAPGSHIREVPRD
# T1 sequence (Q9D9X8 94-221 partner limits assumed): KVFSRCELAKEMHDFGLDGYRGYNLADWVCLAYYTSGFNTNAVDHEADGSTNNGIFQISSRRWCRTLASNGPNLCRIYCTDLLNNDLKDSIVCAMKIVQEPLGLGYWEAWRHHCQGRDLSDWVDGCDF
# T2: recombinant MET (Mus musculus, UniProt Q9CWU5)
# T2 construct: A complete cDNA encoding 440 amino acids was amplified from cDNA library (Ambion) of mouse ovary and cloned in pET expression vector; His-tag (pET fusion); made in house; host or cells: E. coli BL21
# T2 sequence (Q9CWU5 1-440): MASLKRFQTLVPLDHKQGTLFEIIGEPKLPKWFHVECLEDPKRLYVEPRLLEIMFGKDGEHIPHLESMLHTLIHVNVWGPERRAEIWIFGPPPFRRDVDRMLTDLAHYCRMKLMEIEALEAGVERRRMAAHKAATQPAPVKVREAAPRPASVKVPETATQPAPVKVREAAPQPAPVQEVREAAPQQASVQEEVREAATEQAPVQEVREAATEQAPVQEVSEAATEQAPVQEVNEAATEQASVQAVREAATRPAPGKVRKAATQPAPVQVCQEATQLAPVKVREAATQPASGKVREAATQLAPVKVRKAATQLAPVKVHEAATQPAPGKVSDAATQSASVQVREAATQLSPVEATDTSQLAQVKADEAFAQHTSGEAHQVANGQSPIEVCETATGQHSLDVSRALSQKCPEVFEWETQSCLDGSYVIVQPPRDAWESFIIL
# T2 sequence (Q9D9X8 94-221 partner limits assumed): T1 sequence (Q9D9X8 94-221 partner limits assumed)
# B1: recmSLLP1: mature mouse SLLP1, residues 94 to 221, six-histidine C terminal tag, expressed in E. coli, about 15 kDa (protein)
# chain: T1 sequence (Q9D9X8 94-221 partner limits assumed)
# modifications: left off: small tags and cut ends
# Assays:
# rSAS1R = biological target: T1, rSAS1R; assay: Far-Western analysis between SAS1R and SLLP1; format: binding
# Procedure: Purified rSAS1R on nitrocellulose membrane was overlaid or not with soluble rSLLP1, washed and probed with anti-SLLP1 antibody.
# Purified recombinant SAS1R was resolved by SDS-PAGE and transferred to nitrocellulose membranes. The membrane was probed with c-terminal anti-his monoclonal antibody and developed with TMB. Duplicate SAS1R blotted strips were overlaid with mouse rSLLP1 or not (with 5 μg/ml in blocking buffer i.e., 5% milk in PBS with 0.05% Tween 20 [PBST]) for 90 min at room temperature. Before protein overlay, the strips were incubated with blocking buffer for 1 h. Following overlay, the strips were incubated with either anti-SLLP1 (ADD2) monoclonal antibody for 1 h in blocking buffer. After washing in PBST (×4), the strips were probed with goat anti-mouse HRP secondary antibody in blocking buffer for 1 h, washed in PBST (×4) followed by PBS (×1), and developed with TMB.
# To that end, 7.0 μg of recombinant ZEP was loaded onto a 12% SDS gel, subjected to PAGE, and transferred to a nitrocellulose membrane. The membrane was overlaid (OL) with recombinant SLLP1 (2.0 μg/ml) and probed with anti-SLLP1 monoclonal antibody and secondary antibody.
# Metaphase II eggs = assay: Egg labeling by indirect immunofluorescence; format: cell-based, mouse; details: 100 μg/ml protein, 45 min
# Procedure: Metaphase II eggs were obtained as previously described (Coonrod et al, 1999) and incubated with 5% NGS/media for 30 min. Oocytes were washed five times in TYH medium and incubated with 100 μg/ml recmSLLP1 or 100 μg/ml lysozymes for 45 min at 37° C. and 5% CO2. Oocytes were washed five times and incubated with guinea pig anti-recmSLLP1 polyclonal antibody (1:50), sheep anti-human lysozyme (1:25) or rabbit anti-chicken lysozyme (1:400) in 5% NGS/media for 1 h at 37° C. and 5% CO2. Oocytes were washed five times and incubated with donkey anti-guinea pig/Texas Red antibody (1:200) or goat anti-guinea pig/FITC antisera 1:200), donkey anti-sheep and goat anti-rabbit FITC-labeled secondary antibody (1:200) (Jackson ImmunoResearch), respectively in 5% NGS/media for 1 h at […] 37° C. and 5% CO2. Oocytes were washed and mounted in media onto glass slides and visualized under a Zeiss Standard 18 ultraviolet microscope. Images were captured by using MrGrab 1.0 (Carl Zeiss Vision GmbH, Germany).
# recombinant MET = biological target: T2, recombinant MET; assay: Far-Western analysis of MET and SLLP1; format: binding; details: 7 μg recombinant MET, recombinant SLLP1 overlay 2 μg/ml
# Procedure: To that end, 7 μg of recombinant MET was loaded on 12% SDS-PAGE and transferred to nitrocellulose. The membrane was overlaid (OL) with recombinant SLLP1 (2 μg/ml) and probed with anti-SLLP1 monoclonal antibody and secondary antibody.
# [1] = rSLLP1 overlay 5 μg/ml, anti-SLLP1 monoclonal antibody
molecule,measurement,setting,value
B1,binding to recombinant ZEP bands,"rSAS1R; 7.0 μg recombinant ZEP, recombinant SLLP1 overlay 2.0 μg/ml","signal was observed with the upper band of ZEP, but not with the lower band"
same,interaction with C-terminal SAS1R fragment (~25 kD),rSAS1R; [1],very weakly
same,"interaction with full length SAS1R doublet (~51, ~50 kD)",rSAS1R; [1],interacted strongly
same,fluorescence of mouse oocytes after incubation with protein and respective antibody,Metaphase II eggs,fluorescent labeling within the perivitelline space and over much of the oocyte surface
same,binding to purified MET,recombinant MET,strong signal
